Measurements reported in publication doi:10.1101/291294 (bioRxiv, 2018).

B1: GST-tagged human GABARAP (natural protein)
chain: MKFVYKEEHPFEKRRSEGEKIRKKYPDRVPVIVEKAPKARIGDLDKKKYLVPSDLTVGQFYFLIRKRIHLRAEDALFFFVNNVIPPTSATMGQLYQEHHEEDFFLYIAYSDESVYGL
B2: GIM-containing peptide EDEWVNVQY (peptide)
peptide: EDEWVNVQY

Legend:
[1] = biological target: Recombinant WT XIAP protein (human, UniProt P98170 1-497); assay: pull-down
GST-tagged human GABARAP = biological target: B1; assay: pull-down

Chain of Recombinant WT XIAP protein (P98170 whole entry): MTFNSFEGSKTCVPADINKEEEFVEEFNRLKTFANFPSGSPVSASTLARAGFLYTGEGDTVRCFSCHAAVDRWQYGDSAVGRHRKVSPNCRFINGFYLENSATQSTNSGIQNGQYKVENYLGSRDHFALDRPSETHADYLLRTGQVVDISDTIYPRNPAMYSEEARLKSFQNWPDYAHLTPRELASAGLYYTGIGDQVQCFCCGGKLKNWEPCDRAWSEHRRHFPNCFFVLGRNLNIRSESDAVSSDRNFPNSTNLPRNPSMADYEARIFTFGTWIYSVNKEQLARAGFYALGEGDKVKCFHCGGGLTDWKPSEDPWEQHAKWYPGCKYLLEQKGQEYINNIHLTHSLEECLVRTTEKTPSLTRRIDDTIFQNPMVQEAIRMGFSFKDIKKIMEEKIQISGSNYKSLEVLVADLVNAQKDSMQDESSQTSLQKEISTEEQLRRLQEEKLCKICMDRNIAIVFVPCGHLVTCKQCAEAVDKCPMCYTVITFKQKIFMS

B1: binds [1].

B2: binds (GST-tagged human GABARAP).
